Measurements taken from the supplement of paper PMC9112550, “Optimization of the antimicrobial peptide Bac7 by deep mutational scanning” (BMC Biology, 2022).

System: Escherichia coli TOP10
Assay: shrunken log2 fold change of peptide-encoding DNA abundance (4.5 h post-induction vs induction); higher = less antimicrobial activity (less host growth inhibition)
Conditions: time post-induction: 4.5 h; library: site-saturation at positions 5, 18, 19, 20
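Note: peptides expressed intracellularly from a pBAD plasmid library in pooled LB shake-flask culture, induced with 0.3% L-arabinose, DNA abundance read by NGS, three biological replicates, DESeq2 with apeglm shrinkage.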

Sequence | shrunken log2 fold change
RRIRTRPPRLPRPRPRPWDGPRP | 0.0729
RRIRERPPRLPRPRPRPQAHPRP | -0.0188
RRIRRRPPRLPRPRPRPWGPPRP | 0.0858
RRIRRRPPRLPRPRPRPYNGPRP | -0.0173
RRIRKRPPRLPRPRPRPRLAPRP | 0.772
RRIRPRPPRLPRPRPRPRDYPRP | 0.144
RRIRKRPPRLPRPRPRPRECPRP | -0.0199
RRIRGRPPRLPRPRPRPENGPRP | 0.223
RRIRHRPPRLPRPRPRPQHMPRP | -1.2
RRIRIRPPRLPRPRPRPAACPRP | 0.156
RRIRERPPRLPRPRPRPQTQPRP | -0.0049
RRIRVRPPRLPRPRPRPMMAPRP | -0.12
RRIRFRPPRLPRPRPRPHCNPRP | -0.548
RRIRWRPPRLPRPRPRPYNHPRP | -1.43
RRIRHRPPRLPRPRPRPSKMPRP | -0.858
RRIRARPPRLPRPRPRPFMLPRP | -0.0197
RRIRDRPPRLPRPRPRPMIAPRP | 0.732
RRIRIRPPRLPRPRPRPGAKPRP | 0.126
RRIRKRPPRLPRPRPRPIHDPRP | 0.00115
RRIRTRPPRLPRPRPRPDHHPRP | -0.474
RRIRTRPPRLPRPRPRPSMMPRP | -0.0802
RRIRNRPPRLPRPRPRPVERPRP | 0.265
RRIRDRPPRLPRPRPRPPKCPRP | 0.0933
RRIRCRPPRLPRPRPRPCVQPRP | -0.153
RRIRQRPPRLPRPRPRPCICPRP | -0.542

Sequence | shrunken log2 fold change
RRIRFRPPRLPRPRPRPLTDPRP | -0.143
RRIRCRPPRLPRPRPRPQRDPRP | -0.304
RRIRARPPRLPRPRPRPGQMPRP | 0.0151
RRIRERPPRLPRPRPRPWHTPRP | -0.16
RRIRARPPRLPRPRPRPWKSPRP | -0.00111
RRIRYRPPRLPRPRPRPMFVPRP | -0.228
RRIRYRPPRLPRPRPRPYYFPRP | -2.19
RRIRDRPPRLPRPRPRPLKLPRP | 0.0229
RRIRARPPRLPRPRPRPPGEPRP | 0.381
RRIRQRPPRLPRPRPRPCLSPRP | -0.383
RRIRQRPPRLPRPRPRPLFHPRP | -0.733
RRIRGRPPRLPRPRPRPNHTPRP | -0.144
RRIRTRPPRLPRPRPRPWLLPRP | -0.186
RRIRGRPPRLPRPRPRPCNKPRP | -0.442
RRIRLRPPRLPRPRPRPISWPRP | 0.0554
RRIRGRPPRLPRPRPRPLNQPRP | 0.725
RRIRHRPPRLPRPRPRPCFVPRP | 0.0216
RRIRVRPPRLPRPRPRPQHNPRP | -0.604
RRIRPRPPRLPRPRPRPWISPRP | -0.161
RRIRFRPPRLPRPRPRPECQPRP | -0.0729
RRIRLRPPRLPRPRPRPKVVPRP | -0.0761
RRIRPRPPRLPRPRPRPKYFPRP | -0.693
RRIRDRPPRLPRPRPRPRTAPRP | 0.445
RRIRQRPPRLPRPRPRPLEVPRP | -0.0417
RRIRRRPPRLPRPRPRPTCHPRP | 0.0647

Sequence | shrunken log2 fold change
RRIRSRPPRLPRPRPRPFGYPRP | -0.179
RRIRTRPPRLPRPRPRPLPFPRP | -0.518
RRIRWRPPRLPRPRPRPTASPRP | 0.977
RRIRLRPPRLPRPRPRPALQPRP | 0.215
RRIRMRPPRLPRPRPRPELVPRP | 0.0445
RRIRPRPPRLPRPRPRPMVHPRP | 0.137
RRIRGRPPRLPRPRPRPESMPRP | 1.19
RRIRVRPPRLPRPRPRPNNIPRP | -0.937
RRIRVRPPRLPRPRPRPYFWPRP | -0.395
RRIRNRPPRLPRPRPRPTNYPRP | -0.73
RRIRDRPPRLPRPRPRPMFFPRP | 0.125
RRIRCRPPRLPRPRPRPPEPPRP | 0.457
RRIRGRPPRLPRPRPRPEDNPRP | 0.892
RRIRDRPPRLPRPRPRPCEPPRP | 0.194
RRIRIRPPRLPRPRPRPDWVPRP | 0.135
RRIRLRPPRLPRPRPRPGDNPRP | 0.0735
RRIRARPPRLPRPRPRPIPWPRP | 0.313
RRIRTRPPRLPRPRPRPMLYPRP | -0.131
RRIRIRPPRLPRPRPRPASSPRP | 0.093
RRIRPRPPRLPRPRPRPEACPRP | 0.321
RRIRGRPPRLPRPRPRPKVDPRP | 3.36
RRIRWRPPRLPRPRPRPWQLPRP | -0.18
RRIRPRPPRLPRPRPRPYYDPRP | -0.745
RRIRKRPPRLPRPRPRPKMDPRP | 0.158
RRIRDRPPRLPRPRPRPLHQPRP | 0.302

Sequence | shrunken log2 fold change
RRIRPRPPRLPRPRPRPFKPPRP | -0.387
RRIRTRPPRLPRPRPRPGIHPRP | -0.158
RRIRPRPPRLPRPRPRPCCNPRP | -0.301
RRIRGRPPRLPRPRPRPYIQPRP | -0.411
RRIRYRPPRLPRPRPRPPCKPRP | 0.0994
RRIRERPPRLPRPRPRPVMVPRP | 0.204
RRIRARPPRLPRPRPRPHDTPRP | 0.111
RRIRNRPPRLPRPRPRPHGFPRP | 0.0815
RRIRKRPPRLPRPRPRPSWHPRP | -0.0776
RRIRSRPPRLPRPRPRPLSFPRP | -0.24
RRIRQRPPRLPRPRPRPEISPRP | 0.139
RRIRFRPPRLPRPRPRPEFNPRP | -0.199
RRIRPRPPRLPRPRPRPNDSPRP | -0.442
RRIRVRPPRLPRPRPRPETLPRP | -0.223
RRIRYRPPRLPRPRPRPIPVPRP | -0.0888
RRIRFRPPRLPRPRPRPGFSPRP | -0.407
RRIRDRPPRLPRPRPRPTPSPRP | 0.368
RRIRKRPPRLPRPRPRPLQAPRP | 1.34
RRIRTRPPRLPRPRPRPLWLPRP | 0.165
RRIRFRPPRLPRPRPRPCWLPRP | -0.165
RRIRARPPRLPRPRPRPKDDPRP | 0.811
RRIRYRPPRLPRPRPRPRFAPRP | -0.152
RRIRQRPPRLPRPRPRPYSLPRP | -0.197
RRIRGRPPRLPRPRPRPVMIPRP | 0.157
RRIRCRPPRLPRPRPRPEEKPRP | 0.0239

Sequence | shrunken log2 fold change
RRIRFRPPRLPRPRPRPPKVPRP | 0.0991
RRIRIRPPRLPRPRPRPTMFPRP | -0.763
RRIRMRPPRLPRPRPRPMWKPRP | -0.00141
RRIRYRPPRLPRPRPRPFHTPRP | -0.128
RRIRKRPPRLPRPRPRPNEPPRP | 0.027
RRIRARPPRLPRPRPRPTCCPRP | 0.653
RRIRDRPPRLPRPRPRPIQMPRP | 0.137
RRIRHRPPRLPRPRPRPPYLPRP | -0.321
RRIRPRPPRLPRPRPRPWCFPRP | -0.295
RRIRYRPPRLPRPRPRPGIWPRP | 0.138
RRIRMRPPRLPRPRPRPYVPPRP | -0.584
RRIRMRPPRLPRPRPRPFCMPRP | -0.33
RRIRHRPPRLPRPRPRPRTFPRP | 0.147
RRIRWRPPRLPRPRPRPMSTPRP | -0.111
RRIRKRPPRLPRPRPRPEHRPRP | -0.0428
RRIRPRPPRLPRPRPRPPQMPRP | 0.531
RRIRYRPPRLPRPRPRPDVYPRP | -0.0212
RRIRIRPPRLPRPRPRPAWEPRP | -0.143
RRIRPRPPRLPRPRPRPHRCPRP | -0.299
RRIRTRPPRLPRPRPRPWVFPRP | 0.0157
RRIRLRPPRLPRPRPRPKNRPRP | 0.177
RRIRDRPPRLPRPRPRPIHIPRP | -0.734
RRIRHRPPRLPRPRPRPTMMPRP | -0.503
RRIRQRPPRLPRPRPRPKDKPRP | -0.386
RRIRVRPPRLPRPRPRPYVPPRP | -0.398

Sequence | shrunken log2 fold change
RRIRDRPPRLPRPRPRPANDPRP | -0.176
RRIRSRPPRLPRPRPRPPRAPRP | 0.567
RRIRMRPPRLPRPRPRPTFWPRP | 0.916
RRIRLRPPRLPRPRPRPGEEPRP | 0.143
RRIRGRPPRLPRPRPRPDLQPRP | 1.37
RRIRNRPPRLPRPRPRPANTPRP | -0.242
RRIRIRPPRLPRPRPRPYGNPRP | -1.18
RRIRARPPRLPRPRPRPGKEPRP | 0.222
RRIRSRPPRLPRPRPRPFNKPRP | -0.81
RRIRWRPPRLPRPRPRPCDPPRP | 0.0863
RRIRTRPPRLPRPRPRPYTIPRP | -1.21
RRIRYRPPRLPRPRPRPRCMPRP | -0.425
RRIRFRPPRLPRPRPRPKMIPRP | -0.618
RRIRRRPPRLPRPRPRPDFDPRP | 0.291
RRIRKRPPRLPRPRPRPPRGPRP | 1.13
RRIRIRPPRLPRPRPRPHEFPRP | -0.241
RRIRVRPPRLPRPRPRPDQVPRP | -0.202
RRIRDRPPRLPRPRPRPMCGPRP | 1.12
RRIRNRPPRLPRPRPRPRPLPRP | 0.402
RRIRPRPPRLPRPRPRPRQWPRP | 0.485
RRIRNRPPRLPRPRPRPPEFPRP | -0.144
RRIRIRPPRLPRPRPRPHEWPRP | 0.0272
RRIRDRPPRLPRPRPRPEKMPRP | -0.00458
RRIRPRPPRLPRPRPRPWEYPRP | -0.05
RRIRVRPPRLPRPRPRPPIYPRP | -0.16
